Laboratory results as given in the supplement of paper PMC10567573.

B1: TBC1D10A (parent)
chain: WCLVQICEKYLPGYYSEKLEAIQL
B2: RAB22A (parent)
chain: FVEDSFDPNINPTIGASFMTKTVQ

Variants of: B1
Test: protein stability index of a GFP-peptide fusion (GPS, HEK-293T) (PSI 1-6); higher = more stable
Conditions: c terminus: a fixed tail appended
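Note: lentivirally expressed fusions sorted by FACS into six bins by GFP to DsRed ratio, PSI derived from sequencing read proportions per bin multiplied by bin number.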

Protein stability index of substitutions, site by site:
V4: M 3.23 | G 2.45 | I 2.23 | T 2.83 | E 2.09 | L 2.19 | H 1.59 | N 1.57 | Q 1.48 | P 1.73
C2: R 3.28 | S 1.67 | N 3.07 | E 1.01 | G 2.79 | F 1.81 | P 1.86
I6: G 1.73 | K 2.41 | P 2.45 | C 3.08
W1: T 3.45 | F 2.61 | R 2.22 | A 3.88 | Q 1.07 | V 2.6 | P 1.93 | H 2.83
C7: Y 3.39 | T 3.5 | R 3.73 | D 2.31 | M 2.57 | N 3.08 | L 3.68 | K 2.9
Q5: S 2.72 | P 2.69 | K 1.71 | F 2.92 | M 2.16 | V 4.85 | L 3.52 | G 3.13
K9: A 1.11
L3: T 4.55 | C 3.05 | D 1.29 | W 1.02 | P 1.5 | N 1.88 | H 1.87 | M 2.45 | G 3.3 | S 1.88
E8: T 2.34 | Q 4.87 | L 4.41 | Y 3.51 | K 4.48 | A 2.95 | C 2.85 | M 2.81

Variants of: B2
Test: as above
Conditions: c terminus: a fixed tail appended

Protein stability index of substitutions, site by site:
M19: G 2.4 | Y 2.08 | I 2.25 | R 2.46 | S 2.64 | Q 2.38 | H 2.12 | D 3.24 | W 3.23 | T 2.81 | C 2.66 | K 2.1 | A 3.11 | P 2.62 | L 2.22 | N 2.99 | E 3.36 | V 2.29 | F 1.73
A16: K 1.97 | V 1.81 | L 1.81 | W 2.15 | H 2.11 | T 2.26 | C 1.8 | F 2.07 | Y 1.95 | I 2.11 | R 2.26 | G 2.56 | Q 2.61 | S 2.86 | D 2.55 | E 3.38 | P 2.54 | N 2.74 | M 1.75
T20: L 1.66 | C 2.38 | H 2.34 | Y 1.86 | Q 2.24 | F 1.85 | M 2.22 | R 2.12 | N 2.31 | D 2.52 | E 2.39 | W 2.35 | A 2.14 | S 2.06 | V 2.23 | K 2.23 | P 2.29 | G 2.58 | I 1.87
P12: A 2.13 | Q 2.45 | Y 2.37 | D 2.49 | T 2.25 | F 2 | L 1.85 | C 2.06 | V 2.18 | N 2.15 | M 1.89 | S 2.4 | H 2.46 | G 2.29 | K 2.42 | W 2.08 | E 2.57 | R 1.81 | I 1.82
V23: W 2.5 | A 2.43 | D 2.76 | I 2.37 | Y 2.52 | C 2.37 | Q 2.39 | F 1.79 | N 2.44 | K 2.26 | M 1.98 | R 1.89 | G 2.56 | L 2.93 | H 2.5 | T 2.78 | S 2.66 | E 3.24 | P 2.94
T22: I 1.6 | W 1.23 | R 2.34 | P 2.75 | Y 1.73 | M 2.11 | V 2.2 | D 2.85 | A 2.43 | E 2.91 | L 1.78 | C 2.35 | S 2.26 | G 2.25 | H 2.09 | K 2.77 | Q 2.45 | F 2.02 | N 2.25
F18: H 3.24 | S 3.29 | K 2.79 | M 2.65 | D 3.45 | N 3.94 | T 3.15 | R 2.83 | C 3.17 | G 3.35 | Q 3.52 | V 3.07 | E 3.37 | A 3.22 | L 2.56 | I 3.32 | Y 3.08 | P 2.98 | W 2.08
S17: L 1.77 | C 2.04 | G 2.31 | Y 1.82 | R 2.51 | T 2.17 | M 1.74 | N 2.28 | Q 2.6 | F 2.14 | I 2.25 | P 2.49 | W 1.96 | V 1.74 | A 2.18 | E 2.66 | K 2.29 | D 2.53 | H 2.35
N11: W 2.41 | H 1.85 | Y 2.16 | C 2.46 | G 2.07 | A 2.42 | S 2.04 | K 2.47 | I 2.23 | D 2.56 | L 1.85 | P 2.43 | T 2.4 | V 2.24 | F 1.82 | M 2.14 | E 2.58 | R 1.75 | Q 2.48
I10: W 1.93 | T 2.83 | Y 2.25 | V 2.21 | S 2.56
G15: W 1.85 | V 1.87 | M 2.06 | H 2.08 | N 2.41 | T 2.22 | Y 1.9 | P 2.42 | K 2.1 | Q 2.38 | A 2.46 | C 2.03 | I 1.66 | S 2.4 | E 2.86 | L 2.06 | R 1.92 | D 2.86 | F 2.33
Q24: S 2.82 | L 2.19 | N 2.28 | M 1.71 | F 1.49 | R 2.38 | D 2.56 | I 1.55 | H 2.1 | A 2.11 | C 1.89 | G 2.22 | Y 2.98 | K 2.15 | V 2.24 | T 2.01 | P 2.45 | E 2.91
I14: R 2.14 | Y 2.23 | A 2.07 | D 3.19 | N 2.81 | T 2.78 | S 2.46 | W 2.43 | E 3.21 | G 2.59 | V 2.69 | F 2.05 | C 2.01 | Q 2.78 | H 2.87 | P 3.07 | L 2.14 | M 2.55 | K 2.29
K21: N 2.51 | F 2.38 | T 2.41 | P 2.74 | C 1.56 | L 2.24 | E 2.67 | Y 1.93 | G 2.29 | I 2.18 | D 2.87 | M 1.94 | W 2.44 | V 1.89 | A 2.03 | S 2.11 | R 2.19 | H 2.08 | Q 2.87
T13: I 1.75 | H 2.31 | R 1.93 | E 2.52 | F 1.59 | M 1.91 | D 2.71 | K 2.29 | A 2.39 | G 2.15 | P 2.67 | L 2.21 | Q 2.44 | S 2.31 | Y 1.73 | V 2.29 | N 2.19 | W 3.05 | C 1.79
